# Assay results taken from patent US20050113256A1, “Methods of reducing the nicotine content of tobacco plants and tobacco plants obtained thereby” (priority 2003, published 2005).
# Test system: tobacco leaves (Nicotiana tabacum)
# Assay: Treatment of individual tobacco leaves with test solutions, nicotine reduction
# Type: in vivo
# Conditions: incubated for about 3 days
molecule,measurement,value
"Inactive GOX: heat treated glucose oxidase, rendered substantially inactive due to the application of heat (protein, UniProt P13006 17-605, looked up, heat-inactivated) Glucose oxidase: LPHYIRSNGIEASLLTDPKDVSGRTVDYIIAGGGLTGLTTAARLTENPNISVLVIESGSYESDRGPIIEDLNAYGDIFGSSVDHAYETVELATNNQTALIRSGNGLGGSTLVNGGTWTRPHKAQVDSWETVFGNEGWNWDNVAAYSLQAERARAPNAKQIAAGHYFNASCHGVNGTVHAGPRDTGDDYSPIVKALMSAVEDRGVPTKKDFGCGDPHGVSMFPNTLHEDQVRSDAAREWLLPNYQRPNLQVLTGQYVGKVLLSQNGTTPRAVGVEFGTHKGNTHNVYAKHEVLLAAGSAVSPTILEYSGIGMKSILEPLGIDTVVDLPVGLNLQDQTTATVRSRITSAGAGQGQAAWFATFNETFGDYSEKAHELLNTKLEQWAEEAVARGGFHNTTALLIQYENYRDWIVNHNVAYSELFLDTAGVASFDVWDLLPFTRGYVHILDKDPYLHHFAYDPQYFLNELDLLGQAAATQLARNISNSGAMQTYFAGETIPGDNLAYDADLSAWTEYIPYHFRPNYHGVGTCSMMPKEMGGVVDNAARVYGVQGLRVIDGSIPPTQMSSHVMTVFYAMALKISDAILEDYASMQ",Reduction of Nicotine,0.1 mg/g
